In the DeepSol protein solubility set:

experiment: soluble on expression in E. coli; label from the status in PepcDB or PDB records

Soluble on expression in E. coli, not soluble:
NKGKDITSWVNKALDAIAALFSAKTWKRKPKMKVHYGNNTRQNDYDYNARKKAQSDEIDRILDKLKKSGYESLTTEEKKSLFDASKR, MSTPIPPSSPPSTPTTRANNRTKSFSGTGTVATTACICGNVPIALSANTLADSLKVSPLYKQQDSARWNAAAQVYRTSRAVSPTLEEKEKFGFDNAYINQMISPKMSIPKTPISLEEIADMNRKRHEVEGGVIPSDDDVGPLELEAIAAVHELAHEVQDISVSEMLPRTSDLIFVNVKTQEGSPYTLELTMKGWRIASSHTDCMNGDYTKISLHTKYYRNARELLKFISPDHATRFNECVAQKLSKLAEVAVQ, MENLQIGVVGVGVMGKSLALNFESKGYSVALYDISKEKVDETIEENRGKNLVGTHIVEEFVNSLESPRKILLMVNAGEITDKAIDSLVPHLDKGDILIDGGNTYFVDTIRRNKRLAEEGINFIGAGVSGGEEGALKGPSIMPGGQKDAYEKVKDMLENISAKVNNEPCCSYIGPNGAGHYVKMVHNGIEYGDMQLICEAYFFLKQTLDLTAEEFHEIFAEWNKGELNSYLIEITADIFKKKDEETGKPLVDVILDTAGQKGTGKWTSQSALDLGISLPIITESVFARCISALKEERVNASKVLSGPKDKTAIGVEKAELIEAVRQALYMSKICSYAQGFTQLKAASEEYNWNLDFGSISMLWRGGCIIRAAFLQNIKEAYETNTDLPNLLLDPYFKEIVESYQGGLRQIISMAVQQGIPIPAFSAAISYYDSYRTAKLPANLLQAQRDYFGAHTYKRVDKEGTFHTKWI, MPSNCRRFEGKVAIVTAATKGIGLAIAERLLDEGASVVIGSRNQKNVDEAIEYLKNKGLTKVAGIAGHIASTDDQKKLVDFTLQKFGKINILVNNHGINPAFGHILEVSDQVWDKLFEVNVKAGFQMTKLVHPHIAKEGGGAIIFNASYSAYKSPPGIAAYGVTKTTLVGLTRALAMGLAKDNIRVNGIAPGVIKTKMSQVLWDGGEDAEKELTDIQEIALGRLGVPDDCAGTVAYLASDDSSYITGEMIIIAGGVQARL, MGSDKIHHHHHHMRNAVIFTGIPMQYPLELTFKFWALAPQISVIDAQGNLVFYVKQKLFKLKEAITIFADVERTRPLYYIKADRIIDFSARYEFTDSNGTNIGAVKRRGLKSLWRARYDIFDGDTTTLNIQEKNPWVKIADALFAEIPIVGIFTGYVFNPVYLVSRSDGTVVMRLEKIPSFLSRKFTIKQVDQISDREEQQVLLSLMMMLLLERNRG, MRAVVLVPFLKQQRENRDAASAPAAPGRSVEAKLEEAKGLALAIDLEVTQGLVVPVNQPRPATLFGTGKIEEIGHLLDETNSGLVIVDHPLTPVQQRNLEKQWNAKVIDRTGLILEIFGRRASTKEGTLQVDLAHLNYQKGRLVRSWTHLERQRGGAGFMGGPGETQIEADRRLLQDRIVKLEKELEQVVRTRQLHRAKRRKVPHPIVALVGYTNAGKSTLFNRITGAGVLAEDMLFATLDPTLRRMKLPHGRTVILSDTVGFISDLPTHLVAAFRATLEEVLEA, MGSDKIHHHHHHMTALSSVDFCLPEHITPEIFLRDYWQKKPLVIRNGLPEIVGQFEPQDIIELAQNEDVTARLVKTFSDDDWKVFFSPLSEKDFQKLPEKWSVLVQNLEQWSPELGQLWNKFGFIPQWQRDDIMVSYAPKGGSVGKHYDEYDVFLVQGYGHRRWQVGKWCDASTEFKPNQSIRIFDDMGELVIDEVMNPGDILYIPARMAHYGVAEDDCLTFSFGLRYPNLSNLIDGISKGFCHQDPDLNLSEFDLPLRLSQSEQRTGKLADENIQAMKQLLLDKLAHSEAFDTLFKQAVASAVSSRRYELLVSDEMCDPDEVRSILEEDGAFLSQDNNCKLLYTENPLRIYANGEWLDELNIIESEVLKRLSDGESLDWAFLSDLANKTEDPETSMDLLLDSICNWVDDGWALIE, MLPLNATITQIIEESPLIRTFFFDHKFEDMEPGQFVMVWVRGVDEVPMGLSRNNSITVQKVGEATSKLFELKEGDSFGLRGPFGKGFTLPAKGEKVLIIAGGVGAAPLSPYAEAAFAAGAEVNTVLGARSEEHLLFEGRFEALGTVYVSTDDGSKGFKGFVTDVLKNLDVTSYDRIAVCGPEIMMASVFRFLEEREVLEKSEFSLHRYFKCGIGVCGACCIDRSGLRVCKDGPVFSGTQLIGSELGKYSRDASGRRVKI, MEQQLNLGHLLTAARLLDIGALDISSLDLGALTSTSSSPGSSSPAMFDLSNESELRSLFCGKLKVDKKQSSCASNASTSSQPYCSSPPARKSSKHSRTAHNELEKTRRANLRGCLETLKMLVPCVSDATRNTTLALLTRARDHIIELQDSNAAQMKKLNDLRDEQDELVAELAQLQADEEVAQATSQACQTLSQSRPESRASSFTSTSSRDSPCYLEYSPSSKPMDSHKPTIIDLYAEGLIPRGPITFPRPLVYPHNVFDLMNLPPTPFDVSQFLPINLQV, MGSDKIHHHHHHMRVILAQPRGFCAGVVRAIEIVDRALQQHGAPVYVRHEIVHNRHVVDNLRQKGARFVEELDEVPQGAVAIFSAHGVAQTVERDAEARGLDVLDATCPLVTKVHVQGRQYVGAGRTLILIGHAGHPEVEGTVGQIPGKVLLVQSEAEVENLDLPLDTPLAYVTQTTLSVDDTRGIIDALLSRFTDIVGPDTRDICYATQNRQAAVRELSKQVDVLLVVGATNSSNSNRLREIGSESGVASYLVADGSEVKPEWFANVQTVGITAGASAPEEMVKNVIDALSALGPVDVTTMAGREEKVEFKLPSKLMQPLAAREV, MGSDKIHHHHHHMGILQTMFIGFDYGTANCSVAVMRENTPQLLTLENGSTLLPSMLCAPTREAVSEWLYRHHDVPTHSDENQALLRRAIAANRDEDIEVLRNSVQFGLASLQQYVEDPQEVYFVKSPKSFLGASGLKPQQVALFEDLVCAMMLHIKLQAESQLPEQIDQAVIGRPINFQGLGGDEANAQAQGILERAAHRAGFRDVVFQFEPVAAGLDFEATLSEEKRVLVVDIGGGTTDCSLLLMGPQWRERADRQQSLLGHSGCRIGGNDLDIALAFKCLMPLLGMGGETEKGTALPILPWWNAVAINDVPAQSDFYSTANGRLLNDLLRSARDADKVALLLKVWRQRLSYRLVRSAEESKIALSSAASVETALPFIQDDLATAIAQQGLEAALDQPLTRIMEQVRLALDSSQTTPDVIYLTGGSARSPLIKKALAAQLPGIPLAGGDDFGSVTAGLARWAQVVFR, MQLNSSSFHPHHFTCDTTRYSEEQVACICEALSNDARKLSQFVWTVLERDEMRNNQYILKAQAFLAFHSNNFKELYRIIESHHFASEHHLPLQEWWLNAHYHEAEKIRGRQLGAVGKYRIRRKYPLPRTIWDGEETSYCFRDKSRVLLRDWYCRNSYPSPREKRELAEKTHLTVTQVSNWFKNRRQRDRAGVPEPKDCLKDISEEEDLKLIRKTASKLSNSFHNPSDLSSYSAAAAAATFPGFYMNYNDMMIGAGTSYQSL

Soluble on expression in E. coli, soluble:
AELRSREYAEILKQKQELSLVEAGEFNSLGKRNGRVYFVETFDTESGIMKNLFLREQDKNGGDNIIFAKEGNFSLNDNKRTLELRHGYRYSGTPGRADYNQVSFQKLNLIISTTPKLIDPVSHRRTIPTAQLIGSSNPQHQAELMWR, AHHHHHHASAKWVCKICGYIYDEDAGDPDNGISPGTKFEELPDDWVCPICGAPKSEFEKLEDGSQGYSRRGNMMIILKPLIEVDLPEDFVDIIKAKLKGQTVKSGEIITVDILGKPIEFKVLYAEPSPVKVTQKTQIKFAKGNVFEVSLDFKAKDCIITDAFIVLTGESEVLILNHNFEEIRRIEFENLKKIVVKGDLVVLIGEEKVKILKLQ, MSLTYYFSGTIDRVIFENTSNFFKIILLEIDDTDSDFDDFEIIVTGTIADVIEGENYTFWGELTQHPKYGQQLKVERYQRAKPSSAGLIKYFSSQHFKGIGKKTAEKIIHLYGDDPIDNILEDPDKLESISGLSKANRENLVSKLRLNYGAEQILAKLAEYGLNNKTAVQIFERYKEESLTVITENPYQLVEDIQGIGFKMADKLAEQVGINSDAPQRFRAALVHTLLETSIDKGDTYIEAKELLEKSLFILEEVRQVELDPSQIAQELTQLISEDKVQNIGTKIFDNTLFYAESGIHKHLTRILDRPLEKEISSQDIQTEIKHIQAEFNINYDKAQKNAIQKAIQSKVFLLTGGPGTGKTTVINGIIKAYANLHQIDLQKSDRPIILAAPTGRAARRMNELTGLPSATIHRHLGLNGDSEYQALDDFLDCDLIIIDEFSMVDTWLANQLFSAIASNTQVIIVGDSDQLPSVGPGQILADLLKINRLPQVSLTKIFRQSEDSTIVTLANQIRQGRLPTDFTAKKADRSYFEAQSTHIPQMIQKIVSSALKSGIDAQEIQILAPMYRGQAGITHLNKLMQDLLNPLNNQLEFQFNDLHFRKGDKVLHLINDAQINVFNGDIGYITDLIPAKYTESKQDEMILDFDGTEINYPRNEWLKITLAYAMSIHKSQGSEFKVVILPVTRQSGRLLQRNLIYTAITRSKSKLVMLGEIAAFDNAIKNEGTKRKTYLIERFKKDECSGHHNTEKNKQGVKESAAILKEDFILTERNILTIDPMIGLSQADIDLFFKKEGHHHHHH, MTSLCNKELSDTLVGLYDDYKRGFDIGEELKLCVDLALTLELELSIHRLSETDTVLKKEIIQTLQNRRNSHSNEDETIDETGTIIQMDFKERN, GSHMTPPHNYLAVIKVVGIGGGGVNAVNRMIEQGLKGVEFIAINTDAQALLMSDADVKLDVGRDSTRGLGAGADPEVGRKAAEDAKDEIEELLRGADMVFVTAGEGGGTGTGGAPVVASIARKLGALTVGVVTRPFSFEGKRRSNQAENGIAALRESCDTLIVIPNDRLLQMGDAAVSLMDAFRSADEVLLNGVQGITDLITTPGLINVDFADVKGIMSGAGTALMGIGSARGEGRSLKAAEIAINSPLLEASMEGAQGVLMSIAGGSDLGLFEINEAASLVQDAAHPDANIIFGTVIDDSLGDEVRVTVIAAGFDVSGPGRKPVMGETGGAHRIESAKAGKLTSTLFEPVDAVSVPLHTNGATLSIGGDDDDVDVPPFMRR, GSDIGQVIHPDDFDKAAADDYVLHEDGEKIYFLIKSKTDEYCFTNLALVHLDGESAVSSKRVLYRYPYAHYPIRHVMFETAGTVDLDVEIKFEIGGKHYSIDVDKKQLEHVKDLYKALLAIAEKQYEGQKMLEFANSSLNHSVTILGGLRQGDMNVPQTFKDLSQESFDWLQGHYYKWNQKDFGSFYEKYINN, MLTVKQIEAAKPKEKPYRLLDGNGLYLYVPVSGKKVWQLRYKIDGKEKILTVGKYPLMTLQEARDKAWTARKDISVGIDPVKAKKASSNNNSFSAIYKEWYEHKKQVWSVGYATELAKMFDDDILPIIGGLEIQDIEPMQLLEVIRRFEDRGAMERANKARRRCGEVFRYAIVTGRAKYNPAPDLADAMKGYRKKNFPFLPADQIPAFNKALATFSGSIVSLIATKVLRYTALRTKELRSMLWKNVDFENRIITIDASVMKGRKIHVVPMSDQVVELLTTLSSITKPVSEFVFAGRNDKKKPICENAVLLVIKQIGYEGLESGHGFRHEFSTIMNEHEWPADAIEVQLAHANGGSVRGIYNHAQYLDKRREMMQWWADWLDEKVE, AHHHHHHGSIIIMDNGGQYVHRIWRTLRYLGVEAKIIPNTTPLDEIKAMKPKGIIFSGGPSLENTGNCEKILEHYEEFNVPILGICLGHQLIAKFFGGEVGRGEKAEYSLVEIEIIDENDIFKGLPRKVRVWESHMDEVKKLPPKFKLLARSDTCPVEAMKHEELPIYGVQFHPEVAHTEHGADILRNFAKICGEL
